In patent US6576419:

Target: anti-hCG monoclonal antibody from Organon Teknika, Boxtel, the Netherlands
Experiment: competition: hCG displaces FpepT from anti-hCG Mab, fluorescence at 590 nm, fit to exchange model (K1)

Kd: 490 pM
Substance: human chorionic gonadotrophin (hCG) (from UniProt P01215 25-116; P0DN86 21-165) (ligand)
